In patent US5534409, “Cytokine regulated transcription factor” (Ciba-Geigy Corporation):

Target: T1, MGF (mammary gland factor, STAT5), native from lactating mammary gland (Ovis aries, UniProt P42231 SEQ:1-794)
T1 chain: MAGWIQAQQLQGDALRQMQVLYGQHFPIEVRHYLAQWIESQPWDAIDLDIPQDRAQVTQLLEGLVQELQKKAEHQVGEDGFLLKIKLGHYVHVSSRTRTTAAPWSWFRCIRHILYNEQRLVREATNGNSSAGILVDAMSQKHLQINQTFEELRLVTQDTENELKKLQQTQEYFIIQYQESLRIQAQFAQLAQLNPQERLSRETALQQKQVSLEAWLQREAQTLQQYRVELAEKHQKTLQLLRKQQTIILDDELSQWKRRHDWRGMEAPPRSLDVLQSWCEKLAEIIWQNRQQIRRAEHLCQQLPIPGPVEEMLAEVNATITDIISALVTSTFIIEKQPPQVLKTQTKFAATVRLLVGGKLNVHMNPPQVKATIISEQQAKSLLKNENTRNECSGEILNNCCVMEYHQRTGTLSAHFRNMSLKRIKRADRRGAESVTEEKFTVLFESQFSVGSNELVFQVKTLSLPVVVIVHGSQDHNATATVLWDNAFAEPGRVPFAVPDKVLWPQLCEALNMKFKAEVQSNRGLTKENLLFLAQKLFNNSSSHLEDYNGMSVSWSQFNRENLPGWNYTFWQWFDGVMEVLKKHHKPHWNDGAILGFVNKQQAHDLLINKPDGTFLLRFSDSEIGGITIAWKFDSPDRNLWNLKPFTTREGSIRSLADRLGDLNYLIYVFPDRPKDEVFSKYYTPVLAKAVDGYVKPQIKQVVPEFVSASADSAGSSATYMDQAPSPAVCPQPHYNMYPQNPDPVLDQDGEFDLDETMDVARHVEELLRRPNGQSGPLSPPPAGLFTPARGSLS
Assay: EMSA; binds more efficiently than rat site; also used for DNA affinity column, eluted at 600 mM NaCl; binding abolished by tyrosine phosphatase PTP1B, not by PP1C or
Conditions: tags: none; 84 and 92 kDa bands, tyrosine phosphorylated

B1: bovine beta-casein MGF site (dsDNA)
DNA 1: AGATTTCTAGGAATTCAATCC
DNA 2: GGATTGAATTCCTAGAAATCT
B1: binds.
